# Data as given in paper PMC9896067, “Peptide Supramolecular Assembly‐Instructed In Situ Self‐Aggregation for Stratified Targeting Sonodynamic Therapy Enhancement of AIE Luminogens” (Advanced Science, 2022).
# Where a SMILES comes first, the peptide text is derived from it. The star is where a group is joined. X1 = O=C(c1cc(OCCCCCC(=O)*)cc(C(=O)c2ccc3ccc4cccc5ccc2c3c45)c1)c1ccc2ccc3cccc4ccc1c2c34
# How the values were obtained:
# 4T1 tumor‐bearing mice = assay: In vivo and ex vivo fluorescence imaging / biodistribution; details: DIR‐labelled, i.v. 2.4 µmol kg^−1, n = 3; for ex vivo distribution in tumor and major organs: 48 h postinjection
# Description: For the fluorescence imaging and biodistribution assessment in vivo, DIR‐labelled nanosystem was prepared. Briefly, 2 µL of DIR stock solution (2 mM) was added to 1 mL of the PAHN. After stirring for 12 h, the DIR‐labelled nanosystem was finally obtained after dialyzing against deionized water using a dialysis bag (MWCO: 3500 Da) overnight to remove excess DIR. 4T1 tumor‐bearing mice (n = 3) were intravenously injected with DIR‐labelled (Ex/Em = 748 nm/780 nm) PAHN‐1 or PAHN‐2 at a dose of 2.4 µmol kg^−1. Fluorescence images were acquired at preinjection, and 0, 0.5, 1, 2, 6, 24 and 48 h postinjection by using a fluorescence imaging system (CRi Inc., USA). The tumor tissues and major organs were isolated and obtained for ex vivo imaging on the day of animal sacrifice. The corresponding fluorescence intensities were recorded.
# 4T1 cells = assay: CCK‐8 viability of 4T1 cells with or without US; assay type: cell-based, murine; details: for survival of 4T1 cells: without US irradiation, various concentrations
# Description: To determine the antitumor efficacy in vitro, the 4T1 cells were divided into the following 6 groups: i) control, ii) control + US, iii) BP + US, iv) PAHN‐3 + US, v) PAHN‐2 + US, and vi) PAHN‐1 + US. Then, the medium were replaced with the fresh medium containing corresponding formulations at different concentrations (30, 60, 120 µM). After 4 h of treatment, the cells were rinsed with PBS and then treated by US at an intensity of 3 W cm^−2 for 4 min. After that, the culture medium was replaced by a fresh serum‐free medium for another 4 h incubation. Finally, a standard CCK‐8 assay was used to evaluate the viability of the cells. The therapeutic effect was also detected by cellular apoptosis assay. In brief, the 4T1 cells were divided into the 6 groups as described above. Next, cells were treated with either BP, PAHN‐3, PAHN‐2, PAHN‐1 at a concentration of 120 µM, or PBS, followed by US irradiation. Finally, these cells were costained by a dye solution of calcein AM (2 µM) and PI (2 µM) or collected for apoptosis analysis using flow cytometry.
# HUVECs = assay: CCK‐8 cytotoxicity against HUVECs; assay type: cell-based, human; details: without US
# inoblast L929 = assay: CCK‐8 cytotoxicity against L929; assay type: cell-based; details: without US
# healthy mice = assay: Biosafety of PAHN in vivo (H&E, routine blood, blood biochemistry); details: i.v. 2.4 µmol kg^−1, 1, 3, 7, 14, 28 d postinjection, n = 5
# Description: To investigate the short and long‐term biosafety of PAHN‐1 in vivo, PAHN‐1 at a dose of 2.4 µmol kg^−1 was intravenously injected into twenty five healthy mice that were sacrificed at predetermined time points (1, 3, 7, 14, and 28 d postinjection). Five healthy mice that were administrated with the saline solution served as the control group. The blood samples were then collected for biochemistry and routine blood examination. The main organs were stained with H&E.
SMILES,ex vivo distribution in tumor and major organs (4T1 tumor‐bearing mice),time of maximum fluorescence signal of the tumor region (4T1 tumor‐bearing mice) [h],"cell viability (4T1 cells; 4T1 cells, + US 3 W cm^−2, 4 min after 4 h treatment, 30, 60, 120 µM tested, CCK‐8, n = 3)","viability of cells (4T1 cells; 4T1 cells, without US, concentration of BP up to 120 µM, CCK‐8)",cytotoxicity against HUVECs (HUVECs),cytotoxicity against L929 (inoblast L929),"hematological indices (routine blood, blood biochemistry) (healthy mice; compared to control)",histopathology of major organs (H&E) (healthy mice),survival of 4T1 cells (4T1 cells; CCK‐8)
CC(C)C[C@H](NC(=O)[C@H](CCCCN)NC(=O)[C@H](C)NC(=O)[C@H](CC(C)C)NC(=O)[C@H](CCCCN)NC(=O)[C@H](CC(C)C)NC(=O)[C@@H](NC(=O)[C@H](Cc1ccccc1)NC(=O)[C@H](Cc1ccccc1)NC(=O)[C@H](Cc1ccccc1)NC(=O)[C@H](CS)NC(=O)CCCCCOc1cc(C(=O)c2ccc3ccc4cccc5ccc2c3c45)cc(C(=O)c2ccc3ccc4cccc5ccc2c3c45)c1)C(C)C)C(=O)N[C@@H](C)C(=O)N[C@@H](CCCCN)C(=O)N[C@@H](CC(=O)O)C(=O)N[C@@H](CCC(=O)O)C(=O)N[C@H](C(=O)N[C@@H](CC(=O)O)C(=O)N[C@@H](C)C(=O)N[C@@H](CCCCN)C(=O)N[C@@H](CCCNC(=N)N)C(=O)NCC(=O)N[C@@H](C)C(=O)N[C@@H](CCCNC(=N)N)C(=O)N[C@@H](CO)C(=O)N[C@H](C(=O)N[C@@H](C)C(=O)O)[C@@H](C)O)C(C)C [PAHN-1] (X1-CFFFVLKLAKLAKDEVDAKRGARSTA-OH),relatively greater tumor accumulation,24,less than 20%,higher than 80%,negligible cytotoxicity,negligible cytotoxicity,negligible variations,neither significant histopathological changes nor abnormal inflammatory responses,–
CC(C)C[C@H](NC(=O)[C@@H](NC(=O)[C@H](Cc1ccccc1)NC(=O)[C@H](Cc1ccccc1)NC(=O)[C@H](Cc1ccccc1)NC(=O)[C@H](CS)NC(=O)CCCCCOc1cc(C(=O)c2ccc3ccc4cccc5ccc2c3c45)cc(C(=O)c2ccc3ccc4cccc5ccc2c3c45)c1)C(C)C)C(=O)N[C@@H](CCCCN)C(=O)N[C@@H](CCCCN)C(=O)N[C@@H](CCCCN)C(=O)N[C@@H](CC(=O)O)C(=O)N[C@@H](CCC(=O)O)C(=O)N[C@H](C(=O)N[C@@H](CC(=O)O)C(=O)N[C@@H](C)C(=O)N[C@@H](CCCCN)C(=O)N[C@@H](CCCNC(=N)N)C(=O)NCC(=O)N[C@@H](C)C(=O)N[C@@H](CCCNC(=N)N)C(=O)N[C@@H](CO)C(=O)N[C@H](C(=O)N[C@@H](C)C(=O)O)[C@@H](C)O)C(C)C [PAHN-3] (X1-CFFFVLKKKDEVDAKRGARSTA-OH),–,–,–,–,–,–,–,–,no evident change
CC(C)C[C@H](NC(=O)[C@H](CCCCN)NC(=O)[C@H](C)NC(=O)[C@H](CC(C)C)NC(=O)[C@H](CCCCN)NC(=O)[C@H](CC(C)C)NC(=O)[C@@H](NC(=O)[C@H](Cc1ccccc1)NC(=O)[C@H](Cc1ccccc1)NC(=O)[C@H](Cc1ccccc1)NC(=O)[C@H](CS)NC(=O)CCCCCOc1cc(C(=O)c2ccc3ccc4cccc5ccc2c3c45)cc(C(=O)c2ccc3ccc4cccc5ccc2c3c45)c1)C(C)C)C(=O)N[C@@H](C)C(=O)N[C@@H](CCCCN)C(=O)N[C@@H](CC(=O)O)C(=O)N[C@@H](CCC(=O)O)C(=O)N[C@H](C(=O)N[C@@H](CC(=O)O)C(=O)N[C@@H](C)C(=O)N[C@@H](CCCCN)C(=O)N[C@@H](CC(=O)O)C(=O)NCC(=O)N[C@@H](C)C(=O)N[C@@H](CCC(=O)O)C(=O)N[C@@H](CO)C(=O)N[C@@H](Cc1c[nH]cn1)C(=O)N[C@@H](Cc1c[nH]cn1)C(=O)O)C(C)C [PAHN-2] (X1-CFFFVLKLAKLAKDEVDAKDGAESHH-OH),tended to accumulate in the liver and spleen,–,–,–,–,–,–,–,no evident change
